The source of these data is PMC11838195.

The target of this series is T1, MBP-METTL7A WT (human, UniProt Q9H8H3 1-244).
T1 sequence: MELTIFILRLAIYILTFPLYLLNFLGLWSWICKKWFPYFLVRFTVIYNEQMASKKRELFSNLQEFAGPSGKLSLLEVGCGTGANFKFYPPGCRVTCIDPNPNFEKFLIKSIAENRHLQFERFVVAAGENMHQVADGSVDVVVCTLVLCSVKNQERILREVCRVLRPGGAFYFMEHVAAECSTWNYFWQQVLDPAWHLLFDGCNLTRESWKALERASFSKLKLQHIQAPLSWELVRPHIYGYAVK
The series is described as follows: EMSA.

B1: 60 bp dsDNA (dsDNA)
DNA 1: ATTCTTCCGAGTTTTTTCCTCATCTCACTTCCAATACAGAAAGCTTGCCCCGCCCTTCCT
DNA 2: AGGAAGGGCGGGGCAAGCTTTCTGTATTGGAAGTGAGATGAGGAAAAAACTCGGAAGAAT
Regarding B1, the binding result is listed as “binds”.
